# Tests used:
# human CD3 [1] = target: T1, human CD3 (human, UniProt P07766 23-207; P09693 23-182; P04234 22-171; P20963 22-164); assay: flow cytometry titration, T cells (human CD3+)
# T1 construct: whole, on cells; the description names the epsilon chain only 'in certain instances'; also called hu CD3; CD3 on T cells
# human CD33 [2] = target: T2, human CD33 (human, UniProt P20138 18-364); assay: cell-based or functional assay
# human CD33 [3] = target: T2, human CD33; assay: flow cytometry titration, U-937 cells
# Protocol: (§1) Cells were incubated with 100 μL of serial dilutions of CD33/CD3 2×2 T-cell engagers. After washing three times with FACS buffer the cells were incubated with 0.1 mL of 10 μg/mL mouse monoclonal anti-His antibody in the same buffer for 45 min on ice. After a second washing cycle, the cells were incubated with 0.1 mL of 15 μg/mL FITC-conjugated goat anti-mouse IgG antibodies under the same conditions as before. As a control, cells were incubated with the anti-His IgG followed by the FITC-conjugated goat anti-mouse IgG antibodies without anti-CD33 2×2 T-cell engagers. The cells were then washed again and resuspended in 0.2 mL of FACS buffer containing 2 μg/mL propidium iodide (PI) in order to exclude dead cells. The fluorescence of 1×10⁴ living cells was measured using a Beckman-Coulter FC500 MPL flow cytometer using the MXP software (Beckman-Coulter, Krefeld, Germany) or a Millipore Guava EasyCyte flow cytometer using the Incyte software (Merck Millipore, Schwalbach, Germany). Mean fluorescence intensities of the cell samples were calculated using CXP software (Beckman-Coulter, Krefeld, Germany) or Incyte software (Merck Millipore, Schwalbach, Germany). After subtracting the fluorescence intensity values of the cells stained with the secondary and tertiary reagents alone the values were used for calculation of the KD values with the equation for one-site binding (hyperbola) of the GraphPad Prism (version 6.00 for Windows, GraphPad Software, La Jolla Calif. USA). […]
# human CD33 [4] = target: T2, human CD33; assay: flow cytometry titration, HL-60 cells
# Protocol: as §1
# human CD3 [5] = target: T1, human CD3; assay: flow cytometry, human T-cells
# human CD33 [6] = target: T2, human CD33; assay: flow cytometry titration, KG-1 cells
# Protocol: as §1
# human CD33 [7] = target: T2, human CD33; assay: flow cytometry, HL-60 cells
# human CD3 [8] = target: T1, human CD3; assay: cell-based or functional assay
# T2 sequence (P20138 18-364): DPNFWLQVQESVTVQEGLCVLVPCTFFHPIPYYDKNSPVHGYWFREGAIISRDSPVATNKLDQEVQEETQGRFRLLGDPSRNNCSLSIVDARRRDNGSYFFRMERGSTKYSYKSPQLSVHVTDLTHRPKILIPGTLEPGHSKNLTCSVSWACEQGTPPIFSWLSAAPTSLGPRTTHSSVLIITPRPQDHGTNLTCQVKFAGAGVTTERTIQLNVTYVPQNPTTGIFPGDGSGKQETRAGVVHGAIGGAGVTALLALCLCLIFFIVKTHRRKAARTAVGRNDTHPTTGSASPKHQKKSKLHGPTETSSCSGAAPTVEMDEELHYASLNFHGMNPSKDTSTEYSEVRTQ
# T1 sequence (P07766 23-207, chain 1 of 4): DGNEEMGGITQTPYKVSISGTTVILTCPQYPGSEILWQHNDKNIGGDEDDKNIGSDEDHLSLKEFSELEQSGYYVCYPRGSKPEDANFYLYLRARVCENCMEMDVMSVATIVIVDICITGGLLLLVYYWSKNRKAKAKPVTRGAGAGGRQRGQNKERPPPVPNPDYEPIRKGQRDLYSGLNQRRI
# T1 sequence (P09693 23-182, chain 2 of 4): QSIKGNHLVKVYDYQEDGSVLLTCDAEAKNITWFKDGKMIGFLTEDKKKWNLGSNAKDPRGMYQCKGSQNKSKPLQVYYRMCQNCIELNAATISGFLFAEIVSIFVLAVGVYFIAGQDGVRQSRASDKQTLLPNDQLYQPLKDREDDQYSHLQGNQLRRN
# T1 sequence (P04234 22-171, chain 3 of 4): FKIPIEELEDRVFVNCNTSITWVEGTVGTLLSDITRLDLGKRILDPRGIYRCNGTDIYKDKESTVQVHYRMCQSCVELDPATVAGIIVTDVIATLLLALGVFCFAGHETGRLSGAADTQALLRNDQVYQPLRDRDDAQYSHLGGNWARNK
# T1 sequence (P20963 22-164, chain 4 of 4): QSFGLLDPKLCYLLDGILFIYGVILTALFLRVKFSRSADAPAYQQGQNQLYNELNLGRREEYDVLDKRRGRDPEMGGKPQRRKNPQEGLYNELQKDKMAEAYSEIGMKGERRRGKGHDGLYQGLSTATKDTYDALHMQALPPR
Kd (human CD3 [1]) [nM],Kd (human CD33 [3]) [nM],Kd (human CD33 [4]) [nM],Kd (human CD3 [5]) [nM],Kd (human CD33 [6]) [nM],Kd (human CD33 [7]) [nM],CD25 Induction EC50 (human CD3 [8]) [nM],CD69 Induction EC50 (human CD3 [8]) [nM],T cell Proliferation in PBMC EC50 (human CD3 [8]) [nM],Binder,EC50 on HL-60 (cytotoxicity) (human CD33 [2]) [nM]
1.9,1.7,0.5,1.9,1,0.5,0.01,0.006,0.006,"CD33/CD3 2×2 T-cell engager 10 (bispecific antibody, Non-covalent homodimer) DIQMTQSPSSLSASVGDRVTITCRSSTGAVTTSNYANWVQQKPGKAPKGLIGGTNKRAPGVPSRFSGSLIGDKATLTISSLQPEDFATYYCALWYSNLWVFGQGTKVEIKGGSGGSQVQLVQSGAEVKKPGASVKVSCKASGYTFTSYDINWVRQAPGQGLEWMGWMNPNSGNTGFAQKFQGRVTMTRDTSTSTVYMELSSLRSEDTAVYYCARDRANTDYSFGMDVWGQGTLVTVSSGGSGQSVLTQPPSASGTPGQRVTISCSGSRSNIGSNTVNWYQQLPGTAPKLLIYGNNQRPSGVPDRFSGSKSGTSASLAISGLQSEDEADYYCATWDDSLIGWVFGGGTKLTVLGGSGGSEVQLVESGGGLVQPGGSLRLSCAASGFTFSTYAMNWVRQAPGKGLEWVGRIRSKYNNYATYYADSVKDRFTISRDDSKNSLYLQMNSLKTEDTAVYYCARHGNFGNSYVSWFAYWGQGTLVTVSSAAAGSHHHHHH",0.007
69.8,0.9,0.2,69.8,0.3,0.2,0.042,0.027,0.004,"CD33/CD3 2×2 T-cell engager 02 (bispecific antibody, Non-covalent homodimer; also called 2×2 T-cell engager 2) DIQMTQSPSSLSASVGDRVTITCRSSTGAVTTSNYANWVQQKPGKAPKGLIGGTNKRAPGVPARFSGSGSGTDFTLTISSLQPEDFATYYCALWYSNLWVFGQGTKVEIKGGSGGSQVQLVQSGAEVKKPGASVKVSCKASGYTFTSYDINWVRQAPGQGLEWMGWMNPNSGNTGFAQKFQGRVTMTRDTSTSTVYMELSSLRSEDTAVYYCARDRAVTDYYYGMDVWGQGTLVTVSSGGSGQSVLTQPPSASGTPGQRVTISCSGSRSNIGSNTVNWYQQLPGTAPKLLIYGNNQRPSGVPDRFSGSKSGTSASLAISGLQSEDEADYYCATWDDSLIGWVFGGGTKLTVLGGSGGSEVQLVESGGGLVQPGGSLRLSCAASGFTFSTYAMNWVRQAPGKGLEWVGRIRSKYNNYATYYADSVKDRFTISRDDSKNSLYLQMNSLKTEDTAVYYCARHGNFGNSYVSWFAYWGQGTLVTVSSAAAGSHHHHHH",0.0005
94.2,7.1,0.6,94.2,0.9,0.6,0.092,0.091,0.089,"CD33/CD3 2×2 T-cell engager 01 (bispecific antibody, Non-covalent homodimer; also called 2×2 T-cell engager 1) DIQMTQSPSSLSASVGDRVTITCRSSTGAVTTSNYANWVQQKPGKAPKGLIGGTNKRAPGVPARFSGSGSGTDFTLTISSLQPEDFATYYCALWYSNLWVFGQGTKVEIKGGSGGSQVQLVQSGAEVKKPGASVKVSCKASGYTFTSYDINWVRQAPGQGLEWMGWMNPNSGNTGFAQKFQGRVTMTRDTSTSTVYMELSSLRSEDTAVYYCARDRANTDFSYGMDVWGQGTLVTVSSGGSGQSVLTQPPSASGTPGQRVTISCSGSRSNIGSNTVNWYQQLPGTAPKLLIYGNNQRPSGVPDRFSGSKSGTSASLAISGLQSEDEADYYCATWDDSLIGWVFGGGTKLTVLGGSGGSEVQLVESGGGLVQPGGSLRLSCAASGFTFSTYAMNWVRQAPGKGLEWVGRIRSKYNNYATYYADSVKDRFTISRDDSKNSLYLQMNSLKTEDTAVYYCARHGNFGNSYVSWFAYWGQGTLVTVSSAAAGSHHHHHH",0.0019
79.3,1.7,0.5,79.3,0.5,0.5,0.094,0.062,0.044,"CD33/CD3 2×2 T-cell engager 04 (bispecific antibody, Non-covalent homodimer; also called 2×2 T-cell engager 4) DIQMTQSPSSLSASVGDRVTITCRSSTGAVTTSNYANWVQQKPGKAPKGLIGGTNKRAPGVPARFSGSGSGTDFTLTISSLQPEDFATYYCALWYSNLWVFGQGTKVEIKGGSGGSQVQLVQSGAEVKKPGASVKVSCKASGYTFTSYDINWVRQAPGQGLEWMGWMNPNSGNTGFAQKFQGRVTMTRDTSTSTVYMELSSLRSEDTAVYYCARDRANTDYSLGMDVWGQGTLVTVSSGGSGQSVLTQPPSASGTPGQRVTISCSGSRSNIGSNTVNWYQQLPGTAPKLLIYGNNQRPSGVPDRFSGSKSGTSASLAISGLQSEDEADYYCATWDDSLIGWVFGGGTKLTVLGGSGGSEVQLVESGGGLVQPGGSLRLSCAASGFTFSTYAMNWVRQAPGKGLEWVGRIRSKYNNYATYYADSVKDRFTISRDDSKNSLYLQMNSLKTEDTAVYYCARHGNFGNSYVSWFAYWGQGTLVTVSSAAAGSHHHHHH",0.0018
81.9,8.9,1.1,81.9,1.8,1.1,0.117,0.087,0.063,"CD33/CD3 2×2 T-cell engager 03 (bispecific antibody, Non-covalent homodimer; also called 2×2 T-cell engager 3) DIQMTQSPSSLSASVGDRVTITCRSSTGAVTTSNYANWVQQKPGKAPKGLIGGTNKRAPGVPARFSGSGSGTDFTLTISSLQPEDFATYYCALWYSNLWVFGQGTKVEIKGGSGGSQVQLVQSGAEVKKPGASVKVSCKASGYTFTSYDINWVRQAPGQGLEWMGWMNPNSGNTGFAQKFQGRVTMTRDTSTSTVYMELSSLRSEDTAVYYCARDRANTDYSFGMDVWGQGTLVTVSSGGSGQSVLTQPPSASGTPGQRVTISCSGSRSNIGSNTVNWYQQLPGTAPKLLIYGNNQRPSGVPDRFSGSKSGTSASLAISGLQSEDEADYYCATWDDSLIGWVFGGGTKLTVLGGSGGSEVQLVESGGGLVQPGGSLRLSCAASGFTFSTYAMNWVRQAPGKGLEWVGRIRSKYNNYATYYADSVKDRFTISRDDSKNSLYLQMNSLKTEDTAVYYCARHGNFGNSYVSWFAYWGQGTLVTVSSAAAGSHHHHHH",0.0036
2.4,1.8,0.3,,0.5,,,,,"CD33/CD3 2×2 T-cell engager 08 (bispecific antibody, Non-covalent homodimer; also called 2×2 T-cell engager 8) QSVLTQPPSASGTPGQRVTISCSGSRSNIGSNTVNWYQQLPGTAPKLLIYGNNQRPSGVPDRFSGSKSGTSASLAISGLQSEDEADYYCATWDDSLIGWVFGGGTKLTVLGGSGGSEVQLVESGGGLVQPGGSLRLSCAASGFTFSTYAMNWVRQAPGKGLEWVGRIRSKYNNYATYYADSVKDRFTISRDDSKNSLYLQMNSLKTEDTAVYYCARHGNFGNSYVSYFAYWGQGTLVTVSSGGSGGSDIQMTQSPSSLSASVGDRVTITCRSSTGAVTTSNYANWVQQKPGKAPKALIGGTNKRAPGVPSRFSGSLIGDKATLTISSLQPEDFATYYCALWYSNLWVFGQGTKVEIKGGSGGSQVQLVQSGAEVKKPGASVKVSCKASGYTFTSYDINWVRQAPGQGLEWMGWMNPNSGNTGFAQKFQGRVTMTRDTSTSTVYMELSSLRSEDTAVYYCARDRANTDFSYGMDVWGQGTLVTVSSAAAGSHHHHHH",0.0018

# — US20200262920A1 (AMPHIVENA THERAPEUTICS, published 2020)
